Experimental data from patent US20140051120A1 (Genentech, published 2014).
Where no end group is shown, it is not given here.

T1: mouse EGFL7 (mEGFL7-CB-His) (mouse, UniProt Q9QXT5 22-275)
T1 sequence: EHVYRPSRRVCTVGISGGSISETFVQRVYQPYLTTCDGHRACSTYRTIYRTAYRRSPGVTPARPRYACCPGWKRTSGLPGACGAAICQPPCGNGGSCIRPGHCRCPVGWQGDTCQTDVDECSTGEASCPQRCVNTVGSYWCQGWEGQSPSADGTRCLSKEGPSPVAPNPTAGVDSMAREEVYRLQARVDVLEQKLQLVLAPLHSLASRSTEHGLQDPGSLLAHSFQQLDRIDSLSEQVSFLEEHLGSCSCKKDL

T2: p5 peptide of EGFL7 (human)
T2 construct: also called Peptide P5
T2 peptide: RACSTYRTIYRTA

T3: p2S (p2 peptide biotinylated through its free cysteine) (human, also: biotinylated (maleimide PEO2-biotin) on one of the two Cys, which one not given here)
T3 construct: The peptide has two cysteines; also called b-p2S
T3 peptide: RPRYACCPGWKRT

B1: 18F7.v3 IgG (antibody, name in Kabat numbering, V domains shown)
VH: EVQLVESGGGLVQPGGSLRLSCAASGYTFIDYYMNWVRQAPGKGLEWVGDINLDNGGTHYNQKFKGRFTISRDKSKNTAYLQMNSLRAEDTAVYYCAREGVYHDYDDYAMDYWGQGTLVTVSS
VL: DIQMTQSPSSLSASVGDRVTITCRTSQSLVHINGITYLHWYQQKPGKAPKLLIYRVSNRFSGVPSRFSGSGSGTDFTLTISSLQPEDFATYYCSQSTHVPLTFGQGTKVEIKR
notes: IgG; Kabat numbering; also called 18F7-KA
B2: 18F7.v6E IgG (antibody, V domains shown)
VH: EVQLVESGGGLVQPGGSLRLSCAASGYTFIDYYMNWVRQAPGKGLEWVGDINLDNSGTHYNQKFKGRFTISRDKSKNTAYLQMNSLRAEDTAVYYCAREGVYHDYDDYAMDYWGQGTLVTVSS
VL: DIQMTQSPSSLSASVGDRVTITCRTSQSLVHISGITYLHWYQQKPGKAPKLLIYRVSNRFSGVPSRFSGSGSGTDFTLTISSLQPEDFATYYCGQSTHVPLTFGQGTKVEIK
notes: IgG; Variant of 18F7.v6
B3: 18F7.v7 IgG (antibody, V domains shown)
VH: EVQLVESGGGLVQPGGSLRLSCAASGYTFIDYYMNWVRQAPGKGLEWVGDINLDNGGTHYNQKFKGRFTISRDKSKNTAYLQMNSLRAEDTAVYYCAREGVYHDYDDYAMDYWGQGTLVTVSS
VL: DIQMTQSPSSLSASVGDRVTITCRTSQSLVHINGITYLHWYQQKPGKAPKLLIYRVSNRFSGVPSRFSGSGSGTDFTLTISSLQPEDFATYYCAQSTHVPLTFGQGTKVEIK
notes: IgG; Kabat numbering
B4: 18F7.v2 IgG (antibody, name in Kabat numbering, V domains shown)
VH: EVQLVESGGGLVQPGGSLRLSCAASGYTFIDYYMNWVRQAPGKGLEWVGDINLDNGGTHYNQKFKGRFTISRDKSKNTLYLQMNSLRAEDTAVYYCAREGVYHDYDDYAMDYWGQGTLVTVSS
VL: DIQMTQSPSSLSASVGDRVTITCRTSQSLVHINGITYLHWYQQKPGKAPKLLIYRVSNRFSGVPSRFSGSGSGTDFTLTISSLQPEDFATYYCSQSTHVPLTFGQGTKVEIKR
notes: IgG; Kabat numbering; also called 18F7-K
B5: 18F7.v4 IgG (antibody, name in Kabat numbering, V domains shown)
VH: EVQLVESGGGLVQPGGSLRLSCAASGYTFIDYYMNWVRQAPGKGLEWVGDINLDNGGTHYNQKFKGRFTISRDKSKNTVYLQMNSLRAEDTAVYYCAREGVYHDYDDYAMDYWGQGTLVTVSS
VL: DIQMTQSPSSLSASVGDRVTITCRTSQSLVHINGITYLHWYQQKPGKAPKLLIYRVSNRFSGVPSRFSGSGSGTDFTLTISSLQPEDFATYYCSQSTHVPLTFGQGTKVEIKR
notes: IgG; Kabat numbering; also called 18F7-KV
B6: 18F7.v5 IgG (antibody, V domains shown)
VH: EVQLVESGGGLVQPGGSLRLSCAASGYTFIDYYMNWVRQAPGKGLEWVGDINLDNGGTHYNQKFKGRFTISRDKSKNTAYLQMNSLRAEDTAVYYCAREGVYHDYDDYAMDYWGQGTLVTVSS
VL: DIQMTQSPSSLSASVGDRVTITCRTSQSLVHINGITYLHWYQQKPGKAPKLLIYRVSNRGSGVPSRFSGSGSGTDFTLTISSLQPEDFATYYCSQSTHVPLTFGQGTKVEIK
notes: IgG; Kabat numbering
B7: 18F7.v6I IgG (antibody, V domains shown)
VH: EVQLVESGGGLVQPGGSLRLSCAASGYTFIDYYMNWVRQAPGKGLEWVGDINLDNSGTHYNQKFKGRFTISRDKSKNTAYLQMNSLRAEDTAVYYCAREGVYHDYDDYAMDYWGQGTLVTVSS
VL: DIQMTQSPSSLSASVGDRVTITCRTSQSLVHIQGITYLHWYQQKPGKAPKLLIYRVSNRFSGVPSRFSGSGSGTDFTLTISSLQPEDFATYYCGQSTHVPLTFGQGTKVEIK
notes: IgG; Variant of 18F7.v6
B8: 18F7.v6J IgG (antibody, V domains shown)
VH: EVQLVESGGGLVQPGGSLRLSCAASGYTFIDYYMNWVRQAPGKGLEWVGDINLDNSGTHYNQKFKGRFTISRDKSKNTAYLQMNSLRAEDTAVYYCAREGVYHDYDDYAMDYWGQGTLVTVSS
VL: DIQMTQSPSSLSASVGDRVTITCRTSQSLVHINSITYLHWYQQKPGKAPKLLIYRVSNRFSGVPSRFSGSGSGTDFTLTISSLQPEDFATYYCGQSTHVPLTFGQGTKVEIK
notes: IgG; Variant of 18F7.v6
B9: 18F7.v9 IgG (antibody, V domains shown)
VH: EVQLVESGGGLVQPGGSLRLSCAASGYTFIDKYMNWVRQAPGKGLEWVGDINLDNGGTHYNQKFKGRFTISRDKSKNTAYLQMNSLRAEDTAVYYCAREGVYHDYDDYAMDYWGQGTLVTVSS
VL: DIQMTQSPSSLSASVGDRVTITCRTSQSLVHINGITYLHWYQQKPGKAPKLLIYRVSNRFSGVPSRFSGSGSGTDFTLTISSLQPEDFATYYCSQSTHVPLTFGQGTKVEIK
notes: IgG; Kabat numbering
B10: 18F7.v8 IgG (antibody, V domains shown)
VH: EVQLVESGGGLVQPGGSLRLSCAASGYTFIDYYMNWVRQAPGKGLEWVGDINLDNGGTHYNQKFKGRFTISRDKSKNTAYLQMNSLRAEDTAVYYCAREGVYHDYDDYAMDYWGQGTLVTVSS
VL: DIQMTQSPSSLSASVGDRVTITCRTSQSLVHINGITYLHWYQQKPGKAPKLLIYRVSNRFSGVPSRFSGSGSGTDFTLTISSLQPEDFATYYCVQSTHVPLTFGQGTKVEIK
notes: IgG; Kabat numbering
B11: 18F7.v1 IgG (18F7-graft) (antibody, V domains shown)
VH: EVQLVESGGGLVQPGGSLRLSCAASGYTFIDYYMNWVRQAPGKGLEWVGDINLDNGGTHYNQKFKGRFTISRDNSKNTLYLQMNSLRAEDTAVYYCAREGVYHDYDDYAMDYWGQGTLVTVSS
VL: DIQMTQSPSSLSASVGDRVTITCRTSQSLVHINGITYLHWYQQKPGKAPKLLIYRVSNRFSGVPSRFSGSGSGTDFTLTISSLQPEDFATYYCSQSTHVPLTFGQGTKVEIKR
notes: Expressed as IgG
B12: 18F7.v10 IgG (antibody, V domains shown)
VH: EVQLVESGGGLVQPGGSLRLSCAASGYTFIDYYMNWVRQAPGKGLEWVGDINLDNGGTHYNQKFKGRFTISRDKSKNTAYLQMNSLRAEDTAVYYCAREGVYHPYDDYAMDYWGQGTLVTVSS
VL: DIQMTQSPSSLSASVGDRVTITCRTSQSLVHINGITYLHWYQQKPGKAPKLLIYRVSNRFSGVPSRFSGSGSGTDFTLTISSLQPEDFATYYCSQSTHVPLTFGQGTKVEIK
notes: IgG; Kabat numbering
B13: 4F11.v1 IgG (antibody, V domains shown)
VH: EVQLVESGGGLVQPGGSLRLSCAASGHTFTTYGMSWVRQAPGKGLEWVGWINTHSGVPTYADDFKGRFTISRDNSKNTLYLQMNSLRAEDTAVYYCARLGSSAVDYWGQGTLVTVSS
VL: DIQMTQSPSSLSASVGDRVTITCKASQSVDYDGDSYMSWYQQKPGKAPKLLIYGASNLESGVPSRFSGSGSGTDFTLTISSLQPEDFATYYCQQNNEDPYTFGQGTKVEIKR
notes: Expressed as IgG in 293 cells; also called 4F11-graft; direct CDR-graft
B14: 4F11.v2 IgG (antibody, name in Kabat numbering, V domains shown)
VH: EVQLVESGGGLVQPGGSLRLSCAASGHTFTTYGMSWVRQAPGKGLEWVGWINTHSGVPTYADDFKGRFTISRDNSKNTTYLQMNSLRAEDTAVYYCARLGSSAVDYWGQGTLVTVSS
VL: DIQMTQSPSSLSASVGDRVTITCKASQSVDYDGDSYMSWYQQKPGKAPKLLIYGASNLESGVPSRFSGSGSGTDFTLTISSLQPEDFATYYCQQNNEDPYTFGQGTKVEIKR
notes: IgG; Kabat numbering
B15: 4F11.v3 IgG (antibody, name in Kabat numbering, V domains shown)
VH: EVQLVESGGGLVQPGGSLRLSCAASGHTFTTYGMSWVRQAPGKGLEWVGWINTHSGVPTYADDFKGRFTISRDNSKNTVYLQMNSLRAEDTAVYYCARLGSSAVDYWGQGTLVTVSS
VL: DIQMTQSPSSLSASVGDRVTITCKASQSVDYDGDSYMSWYQQKPGKAPKLLIYGASNLESGVPSRFSGSGSGTDFTLTISSLQPEDFATYYCQQNNEDPYTFGQGTKVEIKR
notes: IgG; Kabat numbering
B16: 4F11.v4 IgG (antibody, V domains shown)
VH: EVQLVESGGGLVQPGGSLRLSCAASGHTFTTYGMSWVRQAPGKGLEWVGWINTHSGVPTYADDFKGRFTISRDNSKNTVYLQMNSLRAEDTAVYYCARLGSSAVDYWGQGTLVTVSS
VL: DIQMTQSPSSLSASVGDRVTITCKASQSVDYRGDSYMSWYQQKPGKAPKLLIYGASNLESGVPSRFSGSGSGTDFTLTISSLQPEDFATYYCQQNNEDPYTFGQGTKVEIK
notes: IgG; Kabat numbering

Assays:
[1] = molecular target: T1, mouse EGFL7 (mEGFL7-CB-His); assay: SPR (Biacore), IgG over immobilized mEGFL7-CB at 37 C;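 note: IgG injected as twofold series from 0.5 to 1000 nM, 3 min association and 3.5 min dissociation, reference flow cell subtracted, kinetics fitted to 1:1 Langmuir model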
Method: Affinity determinations were performed by surface plasmon resonance using a BIAcore™-2000. Truncated EGFL7 or p5 peptide was immobilized (approximately 50-200 RU) in 10 mM sodium acetate pH 4.8 on a CMS sensor chip. Purified IgG variants were injected (using a 2-fold serial dilution of 0.5 to 1000 nM in PBST) at a flow rate of 30 μL/min. Each sample was analyzed with 3-minute association and 3.5-minute disassociation. After each injection the chip was regenerated using 10 mM glycine pH 1.7.
(§1) Binding response was corrected by subtracting a control flow cell from IgG variant flow cells. A 1:1 Languir model of simultaneous fitting of kₒₙ and koff was used for kinetics analysis.

p5 peptide of EGFL7 = molecular target: T2, p5 peptide of EGFL7; assay: SPR (Biacore), IgG over immobilized P5 peptide at 37 C;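 note: IgG variants injected at 0.5–1000 nM (2-fold series), 3 min association and 3.5 min dissociation, reference flow cell subtracted, kinetics fitted with a 1:1 Langmuir model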
[2] = molecular target: T3, p2S (p2 peptide biotinylated through …); assay: SPR (BIAcore-2000), IgG injected over immobilized p2S peptide;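 note: CM5 chip with immobilized peptide, IgG at 0.5–1000 nM in PBST, 3 min association and 3.5 min dissociation, reference-cell subtracted, rates fitted by 1:1 Langmuir model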
Method: Affinity determinations were performed by surface plasmon resonance using a BIAcore™-2000. […] Purified IgG variants were injected (using a 2-fold serial dilution of 0.5 to 1000 nM in PBST) at a flow rate of 30 μL/min. Each sample was analyzed with 3-minute association and 3.5-minute disassociation. After each injection the chip was regenerated using 10 mM glycine pH 1.7.
as §1

Row | Kd [1] [nM] | koff [1] [s⁻¹] | kon [1] [M⁻¹ s⁻¹] | Kd (p5 peptide of EGFL7) [nM] | koff (p5 peptide of EGFL7) [s⁻¹] | kon (p5 peptide of EGFL7) [M⁻¹ s⁻¹] | Kd [2] [nM] | koff [2] [s⁻¹] | kon [2] [M⁻¹ s⁻¹] | Binder
1 | 1.64 | 9.05e-05 | 55000 | 4.22 | 0.000858 | 203000 |  |  |  | B1
2 | 9.9 | 0.000474 | 48000 | 5.1 | 0.00154 | 303000 |  |  |  | B2
3 | 1.38 | 9.58e-05 | 70000 | 2.87 | 0.000718 | 251000 |  |  |  | B3
4 | 1.81 | 0.000198 | 110000 | 2.59 | 0.00119 | 458000 |  |  |  | B4
5 | 4.15 | 0.000208 | 50000 | 7.27 | 0.00132 | 182000 |  |  |  | B5
6 | 1.61 | 0.000117 | 73000 | 2.7 | 0.000892 | 330000 |  |  |  | B6
7 | 21.3 | 0.000488 | 23000 | 16.7 | 0.00316 | 190000 |  |  |  | B7
8 | 0.8 | 1.64e-05 | 21000 | 5.6 | 0.000607 | 108000 |  |  |  | B8
9 | 1.58 | 9.32e-05 | 59000 | 3.35 | 0.000763 | 228000 |  |  |  | B9
10 | 2.04 | 0.000199 | 98000 | 2.16 | 0.00102 | 472000 |  |  |  | B10
11 | 2.82 | 0.000274 | 97000 | 6.3 | 0.002 | 317000 |  |  |  | B11
12 | 1.22 | 0.000195 | 160000 | 0.982 | 0.000811 | 825000 |  |  |  | B12
13 |  |  |  |  |  |  | 96.8 | 0.00331 | 34200 | B13
14 |  |  |  |  |  |  | 54.4 | 0.00291 | 53500 | B14
15 |  |  |  |  |  |  | 34.6 | 0.00292 | 84500 | B15
16 |  |  |  |  |  |  | 13.6 | 0.00314 | 231000 | B16
